Laboratory results taken from patent US20170240635A1 (AGENCY FOR SCIENCE TECHNOLOGY AND RESEARCH, published 2017).
Substitutions are numbered along the chain they refer to. Read-outs that look alike come from different tables or passages of the source.

B1: anti-PD-1 antibody clone E1 (Fab) (Fab, V domains shown)
VH: QVQLVESGGGVVQPGRSLRLSCAASGFTFSSYGMHWVRQAPGKGLEWVAVISYDGSNKYYADSVKGRFTISRDNSKNTLYLQMNSLRAEDTAVYYCASDLGAGPYYYGMDVWGQGTTVTVSS
VL: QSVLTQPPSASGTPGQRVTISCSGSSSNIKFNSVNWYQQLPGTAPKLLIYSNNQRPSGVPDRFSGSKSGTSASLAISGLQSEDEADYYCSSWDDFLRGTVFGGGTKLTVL
notes: Crude Fab extract in SPR
B2: A3-IgG4 (antibody, V domains shown)
VH: B1 VH with E6Q, M109K, V111H
VL: LPVLTQPPSASGTPGQRVTISCSGSSSNIKFNSVNWYQQLPGTAPKLLIYSNNQRPSGVPDRFSGSKSGTSASLAISGLQSEDEADYFCASWDDVLYGSVFGGGTKLTVL
notes: also called anti-PD-1 antibody clone A3 (human IgG4)
B3: anti-PD-1 antibody clone G10 (Fab) (Fab, V domains shown)
VH: B1 VH with L100Y
VL: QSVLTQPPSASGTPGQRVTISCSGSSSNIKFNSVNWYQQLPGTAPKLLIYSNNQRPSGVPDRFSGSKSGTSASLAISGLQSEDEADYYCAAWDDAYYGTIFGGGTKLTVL
notes: Crude Fab extract in SPR
B4: A10-IgG4 (antibody, V domains shown)
VH: B1 VH with E6Q, M109K
VL: B2 VL with V95Y, L96Y, S99T, V100I
notes: also called anti-PD-1 antibody clone A10 (human IgG4)

Tests used:
[1] = molecular target: T1, human PD-1 coupled to human Fc (human, UniProt Q15116 25-167, limits assumed); test: SPR (ProteOn XPR36); human PD-1-Fc immobilised, crude Fab extract flown over
T1 construct: also called human-PD-1 coupled to Fc; not shown: human Fc
Description: Briefly, human or mouse PD-1 coupled to human Fc was immobilised on a sensor chip compatible with the Proteon XPR36 bioanalyser (Biorad). Crude Fab extracts (or the control antibodies) were then flown onto the chip and the association/dissociation of each candidate Fab was then recorded and analysed, the affinity (KD) was calculated.

hICOS-Fc = molecular target: T2, hICOS-Fc (human, UniProt Q9Y6W8); test: ELISA; antigen coated 350 ng/well, goat anti-human Fab-HRP, absorbance 450-670 nm
T2 construct: also called human ICOS
T2 sequence (antigen, looked up): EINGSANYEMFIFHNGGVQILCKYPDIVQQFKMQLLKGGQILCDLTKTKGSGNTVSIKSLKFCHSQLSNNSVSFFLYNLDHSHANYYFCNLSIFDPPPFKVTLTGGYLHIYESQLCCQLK
Description: (§1) Anti-PD-1 antibodies were tested in an ELISA assay for their ability to bind to other members of the CD28 family.
(§2) Briefly, ELISA plates were coated with 350 ng/well of one of the following antigens coupled to human Fc in carbonate buffer: human PD-1, human PD-L1, human TIM-3, human LAG-3, human ICOS, human CTLA4, human BTLA, human CD28, mouse TIM-3, or rhesus PD-1. The plate was then blocked with a solution of casein. After extensive washes in PBS Tween-20, antibodies were added into the ELISA wells in the presence of 7% milk in PBS. After 90 minutes at room temperature under agitation and extensive washes, a goat anti-human Fab antibody coupled to HRP was added. One hour later, plates were washed and TMB substrate added. The reaction was stopped with 1M HCl and optical density measured at 450 nm with a reference at 670 nm.

mTim3-Fc = molecular target: T3, mTim3-Fc (mouse, UniProt Q8VIM0); test: as above
T3 construct: also called mouse TIM-3
Description: as §1, §2

[2] = molecular target: T4, human PD-L1 coupled to human Fc (human, UniProt Q9NZQ7 19-239, limits assumed); test: as above
T4 construct: ELISA coating antigen; not shown: human Fc
Description: as §1, §2

[3] = molecular target: T5, human TIM-3 coupled to human Fc (human, UniProt Q8TDQ0 22-200, limits assumed); test: as above
T5 construct: not shown: human Fc
Description: as §1, §2

[4] = molecular target: T6, human LAG-3 coupled to human Fc (human, UniProt P18627 23-450, limits assumed); test: as above
T6 construct: ELISA coating antigen; not shown: human Fc
T6 sequence (looked up): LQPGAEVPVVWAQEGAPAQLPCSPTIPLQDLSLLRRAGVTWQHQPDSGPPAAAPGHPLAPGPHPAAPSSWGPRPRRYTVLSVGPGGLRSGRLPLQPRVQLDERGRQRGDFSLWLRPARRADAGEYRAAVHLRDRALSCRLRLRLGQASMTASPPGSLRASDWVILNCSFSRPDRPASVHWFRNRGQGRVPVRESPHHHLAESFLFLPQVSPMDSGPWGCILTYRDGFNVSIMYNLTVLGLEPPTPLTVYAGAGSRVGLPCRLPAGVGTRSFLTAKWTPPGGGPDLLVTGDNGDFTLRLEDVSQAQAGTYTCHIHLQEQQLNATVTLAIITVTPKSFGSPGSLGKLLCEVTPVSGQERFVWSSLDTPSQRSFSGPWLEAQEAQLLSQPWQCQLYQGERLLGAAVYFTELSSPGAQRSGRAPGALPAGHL
Description: as §1, §2

[5] = molecular target: T7, human BTLA coupled to human Fc (human, UniProt Q7Z6A9 31-150, limits assumed); test: as above
T7 construct: ELISA coating antigen; not shown: human Fc
Description: as §1, §2

[6] = molecular target: T8, human CD28 coupled to human Fc (human, UniProt P10747 19-152, limits assumed); test: as above
T8 construct: ELISA coating antigen; not shown: human Fc
Description: as §1, §2

hCTLA4-Fc = molecular target: T9, hCTLA4-Fc (human, UniProt P16410); test: ELISA; antigen coated 350 ng/well, Fab-containing supernatant, goat anti-human Fab-HRP, absorbance 450-670 nm
T9 construct: also called human CTLA-4; human CTLA4

[7] = molecular target: T10, PD-1 on exhausted human T cells (human, UniProt Q15116 25-288); test: flow cytometry (MFI); IgG4 on human T cells activated 7 days with allogeneic DCs, fluorescent secondary antibody
T10 construct: whole, on cells; T cells exhausted by 7 days of culture with allogeneic monocyte-derived dendritic cells
Description: (§3) 50,000 T cells isolated from a healthy donor were incubated in the presence of 5,000 monocyte-derived DCs from another donor for 7 days at 37° C. Antibodies, expressed as IgG4, were incubated with such activated T cells for 30 minutes in PBS. After a wash in PBS, a fluorescent labelled secondary antibody was added for 30 minutes and then washed in PBS. Cells were resuspended in FACS buffer and binding of the antibody to the cells was monitored by flow cytometry (FIGS. 6 and 7).

[8] = molecular target: T10, PD-1 on exhausted human T cells; test: as above; remark: listed apart in the source
Description: as §3

T10 sequence (Q15116 25-288): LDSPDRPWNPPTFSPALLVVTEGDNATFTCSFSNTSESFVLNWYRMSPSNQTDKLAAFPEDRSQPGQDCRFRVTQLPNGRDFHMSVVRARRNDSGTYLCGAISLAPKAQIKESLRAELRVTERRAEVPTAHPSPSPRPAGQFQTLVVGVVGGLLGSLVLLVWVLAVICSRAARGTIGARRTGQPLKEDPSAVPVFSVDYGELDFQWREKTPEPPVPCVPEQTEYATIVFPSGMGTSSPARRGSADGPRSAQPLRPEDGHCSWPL
T7 sequence (Q7Z6A9 31-150 limits assumed): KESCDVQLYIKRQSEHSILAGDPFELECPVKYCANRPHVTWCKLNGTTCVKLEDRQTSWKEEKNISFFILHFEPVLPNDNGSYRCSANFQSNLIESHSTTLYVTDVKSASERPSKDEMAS
T3 sequence (Q8VIM0 20-191 limits assumed): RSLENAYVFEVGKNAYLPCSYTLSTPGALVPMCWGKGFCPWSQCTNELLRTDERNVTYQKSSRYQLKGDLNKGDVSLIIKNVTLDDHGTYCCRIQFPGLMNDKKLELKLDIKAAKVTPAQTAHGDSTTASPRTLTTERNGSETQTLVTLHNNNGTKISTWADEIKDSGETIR
T4 sequence (Q9NZQ7 19-239 limits assumed): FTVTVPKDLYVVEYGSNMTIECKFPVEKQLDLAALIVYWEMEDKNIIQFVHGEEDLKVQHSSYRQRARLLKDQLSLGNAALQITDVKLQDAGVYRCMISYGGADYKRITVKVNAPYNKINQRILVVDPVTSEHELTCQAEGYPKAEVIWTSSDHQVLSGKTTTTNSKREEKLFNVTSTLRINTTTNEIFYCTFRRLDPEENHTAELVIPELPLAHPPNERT
T1 sequence (Q15116 25-167 limits assumed): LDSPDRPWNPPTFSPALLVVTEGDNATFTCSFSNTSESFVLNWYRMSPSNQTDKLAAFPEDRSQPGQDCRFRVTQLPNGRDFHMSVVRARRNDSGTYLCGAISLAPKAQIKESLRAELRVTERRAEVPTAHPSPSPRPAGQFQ
T9 sequence (P16410 37-162 limits assumed): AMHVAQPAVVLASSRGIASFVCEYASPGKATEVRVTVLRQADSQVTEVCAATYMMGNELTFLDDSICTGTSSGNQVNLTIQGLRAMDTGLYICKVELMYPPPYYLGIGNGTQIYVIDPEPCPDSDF

Row | Binder | Kd [1] [nM] | binding result (hICOS-Fc) | binding result (mTim3-Fc) | binding result [2] | binding result [3] | binding result [4] | binding result [5] | binding result [6] | binding result (hCTLA4-Fc) | EC50 [7] [nM] | EC50 [8] [nM]
1 | B1 | 0.21 | no binding (tested: not given) | no binding (tested: not given) | no binding (tested: not given) | no binding (tested: not given) | no binding (tested: not given) | no binding (tested: not given) | no binding (tested: not given) | no binding (tested: not given) | – | –
2 | B2 | – | – | – | – | – | – | – | – | – | 0.855 | –
3 | B3 | 0.27 | no binding (tested: not given) | no binding (tested: not given) | no binding (tested: not given) | no binding (tested: not given) | no binding (tested: not given) | no binding (tested: not given) | no binding (tested: not given) | no binding (tested: not given) | – | –
4 | B4 | – | – | – | – | – | – | – | – | – | 0.262 | 0.253
